The target of the test is NagA-GFP-His6 fusion protein (N-acetylglucosamine-6-phosphate deacetylase from Mycobacterium smegmatis with C-terminal TEV-cleavable GFP-His6) (Mycobacterium smegmatis). The test can be described thus: SEC; Superdex 200 16/60, 20 mM Bis-Tris, 300 mM NaCl, 10% glycerol pH 8.0; oligomeric state from the elution profile. Background: Size exclusion chromatography separates by hydrodynamic size, large species first.

Among the data in publication PMC6180428 are stoichiometry N values, retold here.

In the case of “NagA-GFP-His6 fusion protein (N-acetylglucosamine-6-phosphate deacetylase from Mycobacterium smegmatis with C-terminal TEV-cleavable GFP-His6) (enzyme)”, the stoichiometry N (as a rule, a count of units in the complex or per binding partner) stood at 2.
